Test results taken from patent US20060035265A1.

Legend:
FLAG-ZIgA fusion protein [1] = experiment: scintillation counting of antibody-coated beads after mixing with 35S-labelled transcription/translation mix
FLAG-Zwt fusion protein [2] = experiment: as above
FLAG-ZIgA fusion protein [3] = experiment: scintillation counting of beads after mixing with 35S-labelled transcription/translation mix; negative control without antibody
FLAG-Zwt fusion protein [4] = experiment: as above

Signal (cpm) (FLAG-ZIgA fusion protein [1]) | Signal (cpm) (FLAG-Zwt fusion protein [2]) | Signal (cpm) (FLAG-ZIgA fusion protein [3]) | Signal (cpm) (FLAG-Zwt fusion protein [4]) | Substance
43700 | 35000 | – | – | biotinylated anti-FLAG BioM5 monoclonal antibody (Sigma prod no. F-2922)
– | – | 5960 | 4860 | streptavidin on native streptavidin (SA) beads (M-280-SA Dynabeads) (from UniProt P22629 37-163)
